In paper doi:10.1101/2021.03.28.437436:
Square brackets hold non-standard residues; d marks the D form. Ends that are not written are not given here. pY = N[C@@H](Cc1ccc(OP(=O)(O)O)cc1)C(=O)O

How the values were obtained:
[1] = target: Recombinant catalytically inactive S195A thrombin mutant (UniProt P00734); test: other fluorescence titration
[2] = target: Nα-fluoresceinated hirugen, [F]-hirugen; test: other fluorescence titration
[3] = target: N-terminal 6xHis-tag derivative of human α-synuclein (6xHis-αSyn) (human) (UniProt P37840); test: SPR
[4] = target: Human plasma α-thrombin (αT) (human); test: other fluorescence titration

**Q.** For “Hirugen (C-terminal peptide 54-65 of hirudin HV1)”, which increase of [F]-hirugen fluorescence on displacement [1] is on record?
**A.** 65%

**Q.** What does the source list for “Recombinant catalytically inactive S195A thrombin mutant (from UniProt P00734) (enzyme)”?
**A.** Kd [2]: 30 nM; Kd [3]: 44 nM

**Q.** With βT-thrombin (βTT) (enzyme) as the molecule, how does the fold decrease in affinity against S195A [3] read?
**A.** 1.5 fold

**Q.** With VRPEHPAETE[pY]DSL[pY]PEDDL [Fibrinogen γ’-peptide (C-terminal peptide 408-427 of fibrinogen elongated γ-chain splice variant)] as the molecule, how does the fold decrease in affinity with 20 μM αSyn against no αSyn [4] read?
**A.** 3 fold
